From US20110053865A1 (Ablynx, published 2011) come the findings set out here.

Residue numbers refer to the chain shown, from its start. Like-named read-outs stand apart in the source and are kept apart here.

For assay [1], the target named is T1, cynomolgus IL-23 (cynomolgus).
T1 construct: also called cyno IL-23; cIL-23
Briefly: alpha-screen, cIL-23/IL-23R.

The target of assay [2] is T2, recombinant human IL-23 (p19/p40) (human, UniProt Q9NPF7 20-189; P29460 23-328).
T2 construct: Bought heterodimer (R&D Systems or eBioscience); biotinylated in the alpha-screens; also called hIL-23
T2 sequence (looked up) 1: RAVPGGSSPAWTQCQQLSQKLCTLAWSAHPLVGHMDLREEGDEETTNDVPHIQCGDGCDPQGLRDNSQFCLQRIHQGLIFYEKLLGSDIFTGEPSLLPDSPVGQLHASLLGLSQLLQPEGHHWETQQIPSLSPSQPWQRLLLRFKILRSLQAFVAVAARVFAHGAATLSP
T2 sequence (looked up) 2: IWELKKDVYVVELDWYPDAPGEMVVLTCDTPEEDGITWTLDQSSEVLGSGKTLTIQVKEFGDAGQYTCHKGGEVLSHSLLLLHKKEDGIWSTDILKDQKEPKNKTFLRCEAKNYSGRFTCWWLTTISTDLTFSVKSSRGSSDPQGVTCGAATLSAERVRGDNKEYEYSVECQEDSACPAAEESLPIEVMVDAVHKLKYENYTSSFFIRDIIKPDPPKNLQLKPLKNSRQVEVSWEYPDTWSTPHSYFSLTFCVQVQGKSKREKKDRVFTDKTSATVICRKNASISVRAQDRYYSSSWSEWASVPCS
Nature of the assay: alpha-screen, hIL-23/hIL-23R. For orientation: Bead proximity is the source of the signal in Alpha formats.

The target of assay [3] is T2, recombinant human IL-23 (p19/p40). Nature of the assay: SPR Biacore, hIL-23; kd2 200-1000 s. Background: SPR reads the build-up and loss of mass on a sensor chip optically.
Assay [4] shares this target. Briefly: SPR Biacore, hIL-23; kd1 125-155 s.
Assay [5] deals with T1, cynomolgus IL-23. Briefly: alpha-screen, cIL-23/hIL-23R.
For assay [6], the target named is T2, recombinant human IL-23 (p19/p40). Briefly: cell-based or functional assay.
For assay [7], the target named is T1, cynomolgus IL-23. Nature of the assay: cell-based or functional assay.
Assay [8] has as its target T2, recombinant human IL-23 (p19/p40). Briefly: alpha-screen, hIL-23/IL-23R.
Assay [9] shares this target. Nature of the assay: cell-based or functional assay. The source holds these as a separate data set.
In assay [10] the target is T1, cynomolgus IL-23. Nature of the assay: cell-based or functional assay. This is another data set of the same source.
For assay [11], the target named is T2, recombinant human IL-23 (p19/p40). Briefly: SPR Biacore 3000, hIL-23 on chip, 100 nM only (indicative).
Method: (§1) Binding kinetics of the second round variants are in depth analysed by Surface Plasmon Resonance (Biacore 3000). […] Nanobody binding was assessed at one concentration (100 nM). Each Nanobody was injected for 4 minutes at a flow rate of 45 μl/min to allow binding to chip-bound antigen. Next, binding buffer without Nanobody was sent over the chip at the same flow rate to allow spontaneous dissociation of bound Nanobody.
Assay [12] has the same target. Nature of the assay: cell-based or functional assay. This is another data set of the same source.
Assay [13] deals with T1, cynomolgus IL-23. Briefly: cell-based or functional assay. The source holds these as a separate data set.
In assay [14] the target is T2, recombinant human IL-23 (p19/p40). Nature of the assay: SPR Biacore 3000, hIL-23 on chip.
Method: as §1
The target is the same in assay [15]. Nature of the assay: inhibition ELISA, hIL-23/hIL-23R-Fc. In general terms: In an ELISA, binding on a coated surface is turned into a signal by an enzyme label.
Method: (§2) Visualisation was performed with enhanced soluble 3,3′,5,5′-tetramethylbenzidine (esTMB) colouring reagent, after which the coloring reaction was stopped with 1N HCl. The absorbance was measured at 450 nm.
For assay [16] the target is unchanged. Nature of the assay: cell-based or functional assay. The source holds these as a separate data set.
Assay [17] shares this target. Briefly: comp alpha-screen hIL-23.
For assay [18] the target is unchanged. Nature of the assay: cell-based or functional assay. The source holds these as a separate data set.
Assay [19] deals with T1, cynomolgus IL-23. Nature of the assay: cell-based or functional assay. The source holds these as a separate data set.
In assay [20] the target is T1, cynomolgus IL-23. Nature of the assay: alpha-screen, cyno IL-23/IL-23R-Fc.
Method: (§3) Human IL-23R-Fc chimera and hIL12Rbeta1-Fc chimera (R&D Systems, Minneapolis, Minn., US) were coupled to acceptor beads according to manufacturer instructions (Perkin Elmer, Waltham, Mass., US).
(§4) To this mixture, the IL-23R acceptor beads and the streptavidin donor beads were added and further incubated for 1 hour at RT.
In assay [21] the target is T2, recombinant human IL-23 (p19/p40). Nature of the assay: alpha-screen, hIL-23/IL-23R-Fc.
Method: as §3, §4
Assay [22] concerns the target T1, cynomolgus IL-23. Briefly: SPR Biacore, cyno IL-23 on chip.
Assay [23] deals with T2, recombinant human IL-23 (p19/p40). Briefly: 'potency assay', not specified (probably the inhibition ELISA of Example 34).
The target is the same in assay [24]. Briefly: SPR Biacore, hIL-23 on chip.
Method: Nanobody binding was assessed at one concentration (100 nM). Each Nanobody was injected for 4 minutes at a flow rate of 45 μl/min to allow binding to chip-bound antigen. Next, binding buffer without Nanobody was sent over the chip at the same flow rate to allow spontaneous dissociation of bound Nanobody.
Assay [25] shares this target. Briefly: SPR Biacore, hIL-23 on chip, several concentrations.
Assay [26] shares this target. Nature of the assay: cell-based or functional assay. This is another data set of the same source.
Assay [27] shares this target. Nature of the assay: cell-based or functional assay. This is another data set of the same source.
Assay [28] concerns the target T1, cynomolgus IL-23. Nature of the assay: cell-based or functional assay. This is another data set of the same source.
Assay [29] deals with T2, recombinant human IL-23 (p19/p40). Nature of the assay: inhibition ELISA, hIL-23/hIL-23R-Fc. This is another data set of the same source.
Method: as §2

B1: P23IL119A3 (VHH)
VHH: EVQLVESGGGLVQAGGSLRLSCAASGRIFSLPASGNIFNLLTIAWHRQAPGMQRELVATINSGSRTNYADSVKGRFTISRDNAQKTVYLQMNNLKPEDTAVYYCQTSGSGSPNFWGQGTQVTVSS
notes: p19+ Nanobody
In general, IC50 refers to the concentration that gives 50% inhibition. As a reminder, the koff is a measure of how fast the partners let go of each other. Usually Kd stands for the equilibrium constant for the complex coming apart. In general, kon refers to the rate constant with which the complex forms. On to B1, for which the IC50 is 0.42 nM with cynomolgus IL-23 [1]; 1.21 nM in [2]; 0.5 nM with cynomolgus IL-23 [5]; 0.76 nM in assay [8]; 1.76 nM in [15]. Also, the koff amounted to 0.0014 s⁻¹ in [3], 0.0041 s⁻¹ in assay [4] and 0.0048 s⁻¹ in assay [14]. The “IC50, splenocyte assay hIL-23” value in assay [6] and in [9] was 16.8 nM throughout. In addition, the “IC50, splenocyte assay cIL-23” value with cynomolgus IL-23 [7] and with cynomolgus IL-23 [10] was 60.5 nM throughout. For the same molecule, the dissociation constant (Kd) in [11] stood at 1.4 nM. Also, the kon in assay [11] worked out at 3.7e+06 M⁻¹ s⁻¹. The “IC50, mouse splenocyte assay (mIL-22)” value in assay [12] came out at 25.5 nM; in the assay with cynomolgus IL-23 [13] it was 37.4 nM.

B2: P23IL119A3-BASIC (VHH)
VHH: B1 VHH with A14P, H46Y, V87L, K95R, Q120L
Regarding B2, the IC50 was 1.47 nM in assay [2] and 0.73 nM with cynomolgus IL-23 [5]. In addition, the koff in [3] worked out at 0.002 s⁻¹; in assay [4] it was 0.0052 s⁻¹. The “IC50, splenocyte assay hIL-23” value in assay [6] is 37.3 nM. Further, the “IC50, splenocyte assay cIL-23” value in the assay with cynomolgus IL-23 [7] amounted to 66.6 nM.

B3: 23IL0038 (PEG40 form not stated) (bispecific antibody)
chain: EVQLVESGGGLVQAGGSLRLSCAASGRIFSLPASGNIFNLLTIAWHRQAPGMQRELVATINSGSRTNYADSVKGRFTISRDNAQKTVYLQMNNLKPEDTAVYYCQTSGSGSPNFWGQGTQVTVSSGGGGSGGGGSGGGGSGGGGSGGGGSGGGGSGGGGSEVQLVESGGGLVQPGGSLRLSCIASGLPFSTKSMGWFRQAPGKEREFVARISPGGTSRYYGDFVKGRFAISRDNAKNTTWLQMNSLKAEDTAVYYCASGERSTYIGSNYYRTNEYDYWGTGTQVTVSSGGGC
modifications: PEG40 on the C-terminal Cys of GGGC; branched or linear not stated for this assay
notes: also called P23IL0038; 119A3-81G2-PEG40
For B3, the concentration for half-maximal inhibition (IC50) in [15] was determined as 0.032 nM.

B4: P23IL37D5 (VHH)
VHH: EVQLVESGGGLVQPGGSLRLSCAASGFTLDYLAIGWFRQAPGKEREGVSCVSSSGQYTYYADSVKGRFTISRDNAESTVYLQMNSLKPEDTAVYYCATDPECYRVRGYYNGEYDYWGQGTQVTVSS
notes: p19+ Nanobody; c-myc, His6-tagged; also called PIL2337D5
For the molecule B4, the “IC50, BAF3 proliferation assay, 76 pM hIL-23” value in [16] came to 13 pM. Further, the IC50 in [17] worked out at 0.176 nM; in the assay with cynomolgus IL-23 [20], 0.32 nM; in assay [21], 0.11 nM; in [23], 0.0384 nM. In addition, in [18], the “IC50, splenocyte assay, 19 pM hIL-23” value was determined as 24 pM. The “IC50, splenocyte assay, 3.8 pM cIL-23” value with cynomolgus IL-23 [19] amounted to 212 pM. Besides, the figures for the koff (with cynomolgus IL-23 [22]; in [24]; in assay [25]) were 0.00051 s⁻¹, 0.00019 s⁻¹ and 0.00018 s⁻¹, respectively. Besides, the “IC50, mouse splenocyte assay (mIL-22)” value in assay [12] was found to be 0.017 nM; in the assay with cynomolgus IL-23 [13] it was 0.288 nM. The Kd in assay [25] amounted to 0.57 nM.

B5: P23IL37D5v16 (VHH)
VHH: B4 VHH with V5L, E44G, A75S, E76K, S77N, K87R, Q121L
notes: Humanization variant of 37D5
Consider B5, for which the IC50 was found to be 0.044 nM in [17] and 0.0888 nM in assay [23].

B6: P23IL36A4 (VHH)
VHH: EVQLVESGGGLVQAGGSLRLSCVASERTFSSSAMGWFRQAPGKEREFVAAIGWSGGGFIHYGDSVKGRFTISADNGKNTVYLQMNSLKPEDTAVYYCAADSRLRGIALLKGSYDYRGQGTQVTVSS
notes: p19+ Nanobody; c-myc, His6-tagged; also called P23IL 36A4 (=36G2); 36G2
Consider B6, for which the IC50 with cynomolgus IL-23 [20] worked out at 0.47 nM; in [21], 1 nM. Further, the koff was determined as 0.0012 s⁻¹ in the assay with cynomolgus IL-23 [22] and 0.0009 s⁻¹ in [24]. In addition, the results for the “IC50, mouse splenocyte assay (mIL-22)” value (in assay [12]; in the assay with cynomolgus IL-23 [13]) were 3.12 nM and 11 nM, respectively.

B7: P23IL119A3V16-35GS-81G2V11-GGGC-PEG40 linear (bispecific antibody)
chain: EVQLLESGGGLVQPGGSLRLSCAASGRIFSLPASGNIFNLLTIAWYRQAPGKGRELVATINSGSRTYYADSVKGRFTISRDNSKKTLYLQMNSLRPEDTAVYYCQTSGSGSPNFWGQGTLVTVSSGGGGSGGGGSGGGGSGGGGSGGGGSGGGGSGGGGSEVQLLESGGGLVQPGGSLRLSCAASGLPFSTKSMGWFRQAPGKGREFVSRISPGGTSRYYGDFVKGRFTISRDNSKNTLYLQMNSLRAEDTAVYYCASGERSTYIGSNYYRTNEYDYWGQGTLVTVSSGGGC
modifications: linear mPEG40 (maleimide) on the C-terminal Cys of GGGC
notes: also called P23IL0063; 23IL0063
Turning to B7, in assay [26], the “IC50, BA/F3 proliferation assay, 76 pM hIL-23” value turned out to be 71 pM. Also, the “IC50, splenocyte assay, 19 pM hIL-23” value in assay [27] was determined as 2.7 pM. For the same molecule, the “IC50, splenocyte assay, 3.8 pM cIL-23” value in the assay with cynomolgus IL-23 [28] worked out at 13.1 pM. For the same molecule, the IC50 in [29] is 0.025 nM.

B8: P23IL119A3V16-35GS-81G2V11-HSA (bispecific antibody)
chain: EVQLLESGGGLVQPGGSLRLSCAASGRIFSLPASGNIFNLLTIAWYRQAPGKGRELVATINSGSRTYYADSVKGRFTISRDNSKKTLYLQMNSLRPEDTAVYYCQTSGSGSPNFWGQGTLVTVSSGGGGSGGGGSGGGGSGGGGSGGGGSGGGGSGGGGSEVQLLESGGGLVQPGGSLRLSCAASGLPFSTKSMGWFRQAPGKGREFVSRISPGGTSRYYGDFVKGRFTISRDNSKNTLYLQMNSLRAEDTAVYYCASGERSTYIGSNYYRTNEYDYWGQGTLVTVSS
notes: also called P23IL0065; 23IL0065; not shown: full length human serum albumin fused directly to the C-terminus
Regarding B8, the “IC50, BA/F3 proliferation assay, 76 pM hIL-23” value in assay [26] came to 125 pM. For the same molecule, the “IC50, splenocyte assay, 19 pM hIL-23” value in assay [27] turned out to be 4.6 pM. The “IC50, splenocyte assay, 3.8 pM cIL-23” value in the assay with cynomolgus IL-23 [28] was 6.7 pM. In [29], the IC50 was found to be 0.038 nM.
